Assay [1] deals with cytoplasmic dynein 74-kD intermediate chain (mouse (endogenous in J774)) (UniProt O88487). In words: co-IP.
Assay [2] has as its target actin-related protein Arp1 of the dynactin complex (mouse (endogenous in J774)) (UniProt P61164). In words: co-IP.
UniProt P61164, sequence (P61164 whole entry, one chain of several): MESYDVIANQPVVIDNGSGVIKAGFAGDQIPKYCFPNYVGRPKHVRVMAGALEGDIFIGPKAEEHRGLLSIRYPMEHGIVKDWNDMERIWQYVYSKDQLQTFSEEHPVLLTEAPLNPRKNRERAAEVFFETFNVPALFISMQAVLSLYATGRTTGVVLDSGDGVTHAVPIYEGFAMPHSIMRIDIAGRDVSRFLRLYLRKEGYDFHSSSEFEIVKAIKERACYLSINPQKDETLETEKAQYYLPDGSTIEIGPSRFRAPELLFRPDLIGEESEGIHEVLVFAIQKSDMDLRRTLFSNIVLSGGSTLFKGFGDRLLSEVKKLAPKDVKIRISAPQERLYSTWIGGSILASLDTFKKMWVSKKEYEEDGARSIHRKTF

UniProt O88487, sequence (O88487 whole entry): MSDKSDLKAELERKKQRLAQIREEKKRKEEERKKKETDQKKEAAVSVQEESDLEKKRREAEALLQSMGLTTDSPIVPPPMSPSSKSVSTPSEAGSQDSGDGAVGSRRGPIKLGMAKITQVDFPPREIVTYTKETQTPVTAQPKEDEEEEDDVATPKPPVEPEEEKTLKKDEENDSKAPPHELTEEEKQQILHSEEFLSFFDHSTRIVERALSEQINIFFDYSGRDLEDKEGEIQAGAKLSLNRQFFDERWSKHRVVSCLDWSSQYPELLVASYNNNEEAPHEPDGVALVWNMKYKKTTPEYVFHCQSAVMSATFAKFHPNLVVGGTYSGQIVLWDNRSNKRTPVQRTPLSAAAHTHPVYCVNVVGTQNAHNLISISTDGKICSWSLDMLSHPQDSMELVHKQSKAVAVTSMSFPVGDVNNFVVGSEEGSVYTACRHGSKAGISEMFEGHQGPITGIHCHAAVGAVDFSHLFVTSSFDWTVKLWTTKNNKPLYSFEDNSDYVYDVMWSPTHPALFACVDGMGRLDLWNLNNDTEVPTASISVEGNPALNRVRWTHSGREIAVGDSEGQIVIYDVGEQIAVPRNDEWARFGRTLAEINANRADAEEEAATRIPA

In assay [1], “cytoplasmic dynein heavy chain (from UniProt Q9JHU4 1-4644) (natural protein)” showed a percent removed from cytosol by immunodepletion of the bait of 80%.

In turn, “dynactin subunit p150^Glued (from UniProt O08788 1-1281) (natural protein)” returned a percent removed from cytosol by immunodepletion of the bait in assay [2] of 95%.

These data come from article PMC2139871.
